Biological target: CNGB3N-EGFP-F (striped bass (Morone saxatilis)) (UniProt Q3I0N1)
Assay: FRET or BRET

“CNG-modulin-HaloTag-TMR (from UniProt H8PG32 1-301) (natural protein)” showed an E FRET (FRET efficiency), mean of 0.3.

From article PMC3296131
